Data on 1 protein can be found in doi:10.1101/722512 (bioRxiv, 2019).

The series concerns the molecule itself. As to the kind of experiment: native MS.

B1: Erwinia ligand-gated ion channel (ELIC), wild type (natural protein)
chain: APADNAADARPVDVSVSIFINKIYGVNTLEQTYKVDGYIVAQWTGKPRKTPGDKPLIVENTQIERWINNGLWVPALEFINVVGSPDTGNKRLMLFPDGRVIYNARFLGSFSNDMDFRLFPFDRQQFVLELEPFSYNNQQLRFSDIQVYTENIDNEEIDEWWIRKASTHISDIRYDHLSSVQPNQNEFSRITVRIDAVRNPSYYLWSFILPLGLIIAASWSVFWLESFSERLQTSFTLMLTVVAYAFYTSNILPRLPYTTVIDQMIIAGYGSIFAAILLIIFAHHRQAMGVEDDLLIQRCRLAFPLGFLAIGCVLVIRGITL
What is called stoichiometry N is a count of units in the complex or per binding partner. As for B1, the “stoichiometry N” value is 5.
